Where a SMILES comes first, the peptide text is derived from it. [ ]: non-standard residue; d: D form. Dolaproine = CO[C@@H]([C@@H]1CCCN1)[C@@H](C)C(=O)O; Dil = CC[C@H](C)[C@H](NC)[C@@H](CC(=O)O)OC; NMeV = CN[C@H](C(=O)O)C(C)C
Tests used:
HuH7 cells = test: Efficacy of G2-2-ADC in HuH7 cells (cell viability, PrestoBlue); type: cell-based, human; details: medium changed after one hour, viability after 98 hours, read-out: IC50 as determined by drug component
Procedure: FIG. 14 An antibody drug conjugate consisting of MMAF attached to a Malamide exchange linker linked to G2-2 was added to HuH7 cells.
An antibody drug conjugate consisting of MMAF attached by a malameide exchange linker to G2-2 was added to the cell culture medium of HUH7 cells in different concentrations. Medium was changed after one hour. Cell viability was analyzed after 98 hours using PrestoBlue reagent (ThermoFischer).

[1] = biological target: T1, Furin cleavage of recombinant GP73-HIS (Homo sapiens, UniProt Q8NBJ4); test: Furin cleavage of GP73-HIS depending on antibody binding (capture ELISA); type: biochemical; details: 3 U and 1.5 U of Furin; 2 hours at 30° C.
T1 construct: purchased Biolegend
T1 sequence (Q8NBJ4 36-401 limits assumed): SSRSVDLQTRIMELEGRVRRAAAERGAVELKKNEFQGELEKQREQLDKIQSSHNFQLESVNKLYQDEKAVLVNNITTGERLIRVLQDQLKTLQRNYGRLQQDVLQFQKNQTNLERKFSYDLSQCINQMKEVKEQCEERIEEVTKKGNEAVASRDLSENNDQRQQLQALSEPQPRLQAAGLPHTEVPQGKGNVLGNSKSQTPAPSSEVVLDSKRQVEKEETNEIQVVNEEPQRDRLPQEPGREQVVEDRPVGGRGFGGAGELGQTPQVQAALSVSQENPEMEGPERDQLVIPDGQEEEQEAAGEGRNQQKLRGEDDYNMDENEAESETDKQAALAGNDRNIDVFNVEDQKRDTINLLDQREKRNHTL
Excerpt: Measurements of Furin cleavage of GP73 using a range from 0 units to 3 units of Furin are depicted.
Testing of Furin cleavage exploits the fact that antibodies G2-1 and G2-2 bind GP73 N-terminal of or at the furin cleavage site 56R whereas recombinant GP73 with C-terminal HIS tag (GP73-HIS) is detected by anti HIS antibody at the C-terminus of GP73. Plate bound anti human IgG can capture G2-1 or G2-2, which binds GP73-HIS. If furin cleavage occurs in a setting where G2-1 or G2-2 have already bound to GP73-HIS, only N-terminal part of GP73 will reside at the G2 antibodies. In contrast, if furin cleavage is hindered by G2 antibodies, GP73-HIS can be detected by an anti HIS antibody.
Furin cleavage was carried out in 1.5 ml tubes. To test if G2 antibodies can hinder furin cleavage recombinant GOLPH-HIS protein (Biolegend) and G2-2 or G2-1 was incubated for 2 hours in 100 mM HEPES and 1 mM CaCl2 buffer pH 7.5 to allow antibody binding to GP73. […]
From each reaction 2×100 ul were transferred to wells of a 96 well plate that had been coated over night with anti human IgG and was blocked with 1% gelatine in PBS. After one hour incubation at room temperature the plate was washed, incubated with anti HIS-hrp antibody for one hour, washed again, incubated with a chromogenic substrate (TMB Amersham) to detect peroxidase, stopped and read at 450 nm.

peptide AA 36-55 of GP73 [2] = biological target: T2, peptide AA 36-55 of GP73 (Homo sapiens, UniProt Q8NBJ4); test: Competition peptide ELISA with HRP-labeled antibodies; type: binding; details: unlabeled competing antibody at high concentration; binding antibody G2-2-HRP
Procedure: A peptide ELISA was performed using horse radish peroxidase labeled G2-1 (G2-1-HRP) or G2-2 (G2-2-HRP) as binding antibodies and G2-1 or G2-2 as competing antibodies. […] Binding to peptide AA 36-55 of GP73 served as positive control (filled circle), negative control was binding to an unrelated peptide (filled diamond) as described in Example 5.
(§1) ELISA was carried out in 96 well plates coated overnight with biotinylated peptide and blocked with 2% gelatine. Horse radish peroxidase labeled antibodies G2-1 (G2-1-HRP) or G2-2 (G2-2-HRP) were applied and incubated for 1.5 hours. For competition testing non labeled G2-1 or G2-2 was added at high concentration. For pH dependent binding the antibodies were applied in phosphate buffer pH 4.4, 5.4, 6.4 or 7.4. After extensive washing a chromogenic substrate (TMB Amersham) was added to detect peroxidase. The reaction was stopped and absorbance was read at 450 nm.

peptide AA 36-55 of GP73 [3] = biological target: T2, peptide AA 36-55 of GP73; test: pH dependent peptide ELISA; type: binding; details: pH range of 7.4 to 5.4
Procedure: A peptide ELISA was performed to test for pH dependency of binding to peptide AA 36-55 of GP73.
as §1

GP73 peptide: […] = biological target: T3, GP73 peptide: […] (Homo sapiens, UniProt Q8NBJ4); test: Biacore surface plasmon resonance, data fit for 1:1 binding; details: Biacore 1:1 binding fit; GP73 peptide SSRSVDLQTRIMELEGRVRR
T3 construct: GP73 peptide: […]
Procedure: In one embodiment, Kd is measured using surface plasmon resonance assays using a BIACORE®-2000 or a BIACORE®-3000 (BIAcore, Inc., Piscataway, N.J.) at 25° C. with immobilized antigen CM5 chips at […] response units (RU). Briefly, carboxymethylated dextran biosensor chips (CM5, BIACORE, Inc.) are activated with N-ethyl-N′-(3-dimethylaminopropyl) carbodiimide hydrochloride (EDC) and N-hydroxysuccinimide (NHS) according to the supplier's instructions. Antigen is diluted with 10 mM sodium acetate, pH 4.8, to 5 μg/ml (−0.2 μM) before injection at a flow rate of 5 μl/minute to achieve approximately 10 response units (RU) of coupled protein. Following the injection of antigen, 1 M ethanolamine is injected to block unreacted groups. For kinetics measurements, two-fold serial dilutions of antibody (0.58 nM to 200 nM) are injected in PBS with 0.05% polysorbate 20 (TWEEN-20™) surfactant (PEST) at 25° C. at a flow rate of approximately 25 μl/min. Association rates (kon) and dissociation rates (koff) are calculated using a simple one-to-one Langmuir binding model (BIACORE® T100 Evaluation Software) by simultaneously fitting the association and dissociation sensorgrams. The equilibrium dissociation constant (Kd) is calculated as the ratio koff/kon. See, e.g., Chen et al., J. Mol. Biol. 293:865-881 (1999). If the on-rate exceeds […] s^−1 by the surface plasmon resonance assay above, then the on-rate can be determined by using a fluorescent quenching technique that measures the increase or decrease in fluorescence emission intensity (excitation=295 nm; emission=340 nm, 16 nm band-pass) at 25° C. of a 20 nM anti-antigen antibody in PBS, pH 7.2, in the presence of increasing concentrations of antigen as measured in a spectrometer, such as a stop-flow equipped spectrophometer (Aviv Instruments) or a 8000-series SLM-AMINCO™ spectrophotometer (ThermoSpectronic) with a stirred cuvette.

[4] = biological target: T4, GP73 AVRR (GP73 AA36 to 401, R52A) (Homo sapiens, UniProt Q8NBJ4, R52A); test: Protein ELISA on GP73-His AVRR; type: binding; details: plates coated with GP73 AVRR; absorbance 450 nm
T4 construct: contains GP73-10×His AVRR, encompassing GP73 AA36 to 401 (GP73 AVRR); made in house; host or cells: 293HEK cells, isolated from the supernatant by IMAC
T4 sequence (Q8NBJ4 with tags, fused parts or gaps R52A): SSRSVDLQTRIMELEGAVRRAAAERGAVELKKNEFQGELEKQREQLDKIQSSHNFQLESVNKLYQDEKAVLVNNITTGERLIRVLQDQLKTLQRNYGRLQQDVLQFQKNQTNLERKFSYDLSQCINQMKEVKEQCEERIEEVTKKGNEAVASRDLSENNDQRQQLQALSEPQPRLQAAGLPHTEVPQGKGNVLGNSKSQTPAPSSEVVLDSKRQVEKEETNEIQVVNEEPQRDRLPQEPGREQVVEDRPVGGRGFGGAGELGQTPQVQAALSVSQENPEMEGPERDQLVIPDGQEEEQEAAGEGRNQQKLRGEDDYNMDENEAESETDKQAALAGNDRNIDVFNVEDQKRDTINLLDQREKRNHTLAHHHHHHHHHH
Procedure: (§2) 293HEK cells were either transfected with cDNA containing full length GP73 AA 1-401 C-terminal tagged with 10×HIS-Tag or with a GP73 ΔN variant containing AA 36 to 401 with a R52A mutation, resulting in a non-cleavable variant, C-terminal tagged with 10×HIS-Tag (GP73-His AVRR). In both constructs a secretion signal was added in frame to the N-terminus. The supernatant of the full length GP73 expressing cells contains sGP73-10×His, encompassing GP73 AA56 to 401 (sGP73; SEQ ID NO: 40), that has been proteolytically cleaved by furin or another protease at AA 55. The supernatant of the GP73 ΔN variant contains GP73-10×His AVRR, encompassing GP73 AA36 to 401 (GP73 AVRR; SEQ ID NO: 41) as shown in FIG. 20. Only the latter of the two constructs contains the rGP73 epitope. Both proteins were isolated by IMAC.
(§3) ELISA was carried out in 96 well plates coated overnight with sGP73 or GP73 AVRR and blocked with 2% gelatine. Antibodies 8A10, G2-2opti (IgG2a) or isotype control antibody were applied, incubated for 1.5 hours and washed away. A secondary Horse radish peroxidase labeled anti mouse antibody was added for 1 hour and after extensive washing a chromogenic substrate (TMB Amersham) was applied to detect peroxidase.

sGP73 (GP73 AA56 to 401) = biological target: T5, sGP73 (GP73 AA56 to 401) (Homo sapiens, UniProt Q8NBJ4); test: Protein ELISA on sGP73-His; type: binding; details: plates coated with sGP73; absorbance 450 nm
T5 construct: contains sGP73-10×His, encompassing GP73 AA56 to 401 (sGP73); made in house; host or cells: 293HEK cells, isolated from the supernatant by IMAC
T5 sequence (Q8NBJ4 with tags, fused parts or gaps): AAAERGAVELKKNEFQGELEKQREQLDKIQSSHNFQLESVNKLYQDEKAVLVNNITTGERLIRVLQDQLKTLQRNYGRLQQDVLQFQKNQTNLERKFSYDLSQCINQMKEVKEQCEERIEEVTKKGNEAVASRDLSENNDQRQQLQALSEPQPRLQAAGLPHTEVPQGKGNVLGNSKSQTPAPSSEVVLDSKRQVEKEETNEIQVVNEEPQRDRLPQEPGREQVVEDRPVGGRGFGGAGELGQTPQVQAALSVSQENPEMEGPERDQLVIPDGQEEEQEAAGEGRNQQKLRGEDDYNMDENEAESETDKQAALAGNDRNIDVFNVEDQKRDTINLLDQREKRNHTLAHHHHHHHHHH
Procedure: as §2, §3

How did the IC50 (HuH7 cells) turn out when `CC[C@H](C)[C@@H]([C@@H](CC(=O)N1CCC[C@H]1[C@H](OC)[C@@H](C)C(=O)N[C@@H](Cc1ccccc1)C(=O)O)OC)N(C)C(=O)[C@@H](NC(=O)[C@@H](NC)C(C)C)C(C)C` [MMAF, monomethylauristatin F] (H-[NMeV]V[Dil][Dolaproine]F-OH) was run?
Its IC50 is 0.277 µM.

B1: G2-1: scFv clone with human IgG1 heavy and human Igk light constant regions; VH/VL SEQ ID NO: 10 and 11; binds rGP73 (antibody, V domains shown)
VH: EVQLLESGGGVVQPGRSLRLSCAASGFTFSSYAMSWVRQAPGKGLEWVSVISYDGSNKAYADSVKGRFTISRDNSKNTLYLQMNSLRAEDTAVYYCARGRSYYDSSGYLFDYWGQGTLVTVSS
VL: DIQMTQPHSVSESVGKTVIITCTGGGGSIDTNYVQWYQQRPGSAPVTLIYEDDQRPFGVPDRFSAAIDTSSSSASLTISGLTAEDEATYYCQSSHSTAVVFGGGTKVEIK
modifications: human IgG1 and Igk constant regions not cited; G2-1 heavy chain variable region (VH); G2-1 light chain variable region (VL)
Which results are given for B1?
Furin cleavage of GP73 after preincubation with antibody [1]: significant reduction in Furin cleavage; competition with G2-2-HRP for peptide binding (peptide AA 36-55 of GP73 [2]): Competitive inhibition; pH dependency of binding to peptide AA 36-55 of GP73 (peptide AA 36-55 of GP73 [3]): Stable binding; koff, measurement 1 + 2 mean (GP73 peptide: […]): 0.001981 s⁻¹; kon, measurement 1 + 2 mean (GP73 peptide: […]): 635200 M⁻¹ s⁻¹

B2: G2-2opti (IgG2a): chimeric human/murine version of G2-2opti with murine constant domains (antibody, V domains shown)
VH: QVQLVQSGGGVVQPGRSLRLSCAASGFTFSSYGMHWVRQAPGKGLEWVAVISYDGSNKYYADSVKGRFTISRDNSKNTLYLQMNSLRAEDTAVYYCAREGSAGMDVWGQGTTVTVSS
VL: QAVLTQPSSLSASPGASASLTCTLRSDISVGFHRIYWYQQKPGSPPQYLLRYKSDSDKQQGSGVPSRFSGSKDASANAGILLISGLQSDDEADYYCVIWHTSGVVFGGGTKLTVL
How did the “binding to GP73 AVRR (ELISA)” value [4] turn out when B2 was run?
Its value is “binds to GP73 AVRR”.

And the “binding to sGP73 (ELISA)” value (sGP73 (GP73 AA56 to 401))?
Its value is “not to sGP73”.

Reference: US11697680B2, “Anti-GP73 antibodies and immunoconjugates” (CUREAB GMBH, priority 2016, dated 2023)
